From US20150064134A1

Legend:
Experiment in all cases: cell-based or functional assay
JAK3(h) (human) = JAK3(h) (human) (UniProt P52333)
IGF-1R(h) (human) = IGF-1R(h) (human) (UniProt P08069)
Tie2(R849W)(h) (human) = Tie2(R849W)(h) (human) (UniProt Q02763)
GRK5(h) (human) = GRK5(h) (human) (UniProt P34947)
JNK1α1(h) (human) = JNK1α1(h) (human) (UniProt P45983)
EGFR(L858R)(h) (human) = EGFR(L858R)(h) (human) (UniProt P00533)
BTK(h) (human) = BTK(h) (human) (UniProt Q06187)
CK2α2(h) (human) = CK2α2(h) (human) (UniProt P19784)
MAPK1(h) (human) = MAPK1(h) (human) (UniProt P28482)
EphA2(h) (human) = EphA2(h) (human) (UniProt P29317)
PAK6(h) (human) = PAK6(h) (human) (UniProt Q9NQU5)
SRPK2(h) (human) = SRPK2(h) (human) (UniProt P78362)
Bmx(h) (human) = target: T1, Bmx(h) (human) (UniProt P51813)
T1 sequence (looked up): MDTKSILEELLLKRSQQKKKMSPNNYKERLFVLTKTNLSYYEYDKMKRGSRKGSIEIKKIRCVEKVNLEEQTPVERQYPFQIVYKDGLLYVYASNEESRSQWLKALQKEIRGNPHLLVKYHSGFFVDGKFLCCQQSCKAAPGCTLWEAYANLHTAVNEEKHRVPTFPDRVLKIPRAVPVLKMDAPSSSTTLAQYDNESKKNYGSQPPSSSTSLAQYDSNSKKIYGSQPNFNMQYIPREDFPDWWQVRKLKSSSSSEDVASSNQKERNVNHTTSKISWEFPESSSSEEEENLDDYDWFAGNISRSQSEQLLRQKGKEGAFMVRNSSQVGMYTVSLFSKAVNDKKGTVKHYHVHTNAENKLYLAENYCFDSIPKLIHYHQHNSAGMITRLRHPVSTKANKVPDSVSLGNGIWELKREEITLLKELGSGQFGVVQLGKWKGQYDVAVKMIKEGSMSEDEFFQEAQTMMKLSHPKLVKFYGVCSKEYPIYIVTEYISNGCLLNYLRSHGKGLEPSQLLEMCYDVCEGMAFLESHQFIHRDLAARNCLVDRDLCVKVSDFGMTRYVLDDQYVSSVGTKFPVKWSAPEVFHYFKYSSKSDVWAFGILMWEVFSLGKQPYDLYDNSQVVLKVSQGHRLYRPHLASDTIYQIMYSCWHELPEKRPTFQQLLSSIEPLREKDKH

FGFR1(V561M)(h) (human) = FGFR1(V561M)(h) (human) (UniProt P11362)
MRCKα(h) (human) = MRCKα(h) (human) (UniProt Q5VT25)
PAK3(h) (human) = PAK3(h) (human) (UniProt O75914)
PAK5(h) (human) = PAK5(h) (human) (UniProt Q9P286)
CK1γ3(h) (human) = CK1γ3(h) (human) (UniProt Q9Y6M4)
CK1γ2(h) (human) = CK1γ2(h) (human) (UniProt P78368)
c-RAF(h) (human) = c-RAF(h) (human) (UniProt P04049)
PAR-1Bα(h) (human) = PAR-1Bα(h) (human) (UniProt Q7KZI7)

EphA2(h) (human), sequence (P29317 559-976 limits assumed): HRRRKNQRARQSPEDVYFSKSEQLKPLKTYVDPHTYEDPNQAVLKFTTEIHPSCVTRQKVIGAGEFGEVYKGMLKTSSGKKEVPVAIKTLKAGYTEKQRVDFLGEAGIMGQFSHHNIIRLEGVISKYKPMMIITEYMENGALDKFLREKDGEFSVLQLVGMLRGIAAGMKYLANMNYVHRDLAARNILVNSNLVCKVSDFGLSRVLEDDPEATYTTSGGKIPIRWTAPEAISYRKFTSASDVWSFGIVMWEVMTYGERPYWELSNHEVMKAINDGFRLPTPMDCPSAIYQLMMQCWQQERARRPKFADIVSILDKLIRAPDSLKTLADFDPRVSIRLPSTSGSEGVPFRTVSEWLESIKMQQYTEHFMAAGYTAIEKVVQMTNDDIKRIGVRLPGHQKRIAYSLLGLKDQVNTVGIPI
FGFR1(V561M)(h) (human), sequence (P11362 456-765 V561M limits assumed): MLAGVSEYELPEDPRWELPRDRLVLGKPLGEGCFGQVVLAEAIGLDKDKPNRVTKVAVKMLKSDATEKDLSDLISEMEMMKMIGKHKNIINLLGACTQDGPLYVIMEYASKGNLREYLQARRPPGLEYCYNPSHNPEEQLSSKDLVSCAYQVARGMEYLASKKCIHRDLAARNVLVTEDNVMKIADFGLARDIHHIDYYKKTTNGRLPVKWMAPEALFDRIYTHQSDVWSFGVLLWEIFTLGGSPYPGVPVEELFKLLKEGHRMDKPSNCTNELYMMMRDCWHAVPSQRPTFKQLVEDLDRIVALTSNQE
Tie2(R849W)(h) (human), sequence (Q02763 771-1124 R849W limits assumed): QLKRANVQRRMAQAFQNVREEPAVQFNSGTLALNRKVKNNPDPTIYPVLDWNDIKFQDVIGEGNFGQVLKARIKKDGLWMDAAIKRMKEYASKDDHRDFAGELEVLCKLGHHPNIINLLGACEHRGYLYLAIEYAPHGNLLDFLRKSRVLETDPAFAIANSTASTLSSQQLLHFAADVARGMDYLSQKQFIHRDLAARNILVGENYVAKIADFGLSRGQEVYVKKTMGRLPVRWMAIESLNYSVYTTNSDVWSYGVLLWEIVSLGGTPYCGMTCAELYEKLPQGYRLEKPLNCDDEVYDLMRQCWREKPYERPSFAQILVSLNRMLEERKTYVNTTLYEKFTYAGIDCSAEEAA
IGF-1R(h) (human), sequence (P08069 959-1367 limits assumed): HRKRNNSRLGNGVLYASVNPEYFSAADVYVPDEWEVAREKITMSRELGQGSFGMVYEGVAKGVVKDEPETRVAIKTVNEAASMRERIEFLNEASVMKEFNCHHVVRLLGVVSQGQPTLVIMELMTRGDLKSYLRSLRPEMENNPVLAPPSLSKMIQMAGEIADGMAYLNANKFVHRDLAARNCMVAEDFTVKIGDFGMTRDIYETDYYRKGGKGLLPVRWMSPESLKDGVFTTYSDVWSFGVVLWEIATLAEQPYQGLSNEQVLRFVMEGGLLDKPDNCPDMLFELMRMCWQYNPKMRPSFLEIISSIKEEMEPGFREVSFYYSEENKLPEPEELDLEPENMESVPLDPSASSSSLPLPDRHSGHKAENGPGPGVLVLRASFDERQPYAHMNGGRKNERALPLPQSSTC
PAK3(h) (human), sequence (O75914 other isoform, or with tags, fused parts or gaps limits assumed): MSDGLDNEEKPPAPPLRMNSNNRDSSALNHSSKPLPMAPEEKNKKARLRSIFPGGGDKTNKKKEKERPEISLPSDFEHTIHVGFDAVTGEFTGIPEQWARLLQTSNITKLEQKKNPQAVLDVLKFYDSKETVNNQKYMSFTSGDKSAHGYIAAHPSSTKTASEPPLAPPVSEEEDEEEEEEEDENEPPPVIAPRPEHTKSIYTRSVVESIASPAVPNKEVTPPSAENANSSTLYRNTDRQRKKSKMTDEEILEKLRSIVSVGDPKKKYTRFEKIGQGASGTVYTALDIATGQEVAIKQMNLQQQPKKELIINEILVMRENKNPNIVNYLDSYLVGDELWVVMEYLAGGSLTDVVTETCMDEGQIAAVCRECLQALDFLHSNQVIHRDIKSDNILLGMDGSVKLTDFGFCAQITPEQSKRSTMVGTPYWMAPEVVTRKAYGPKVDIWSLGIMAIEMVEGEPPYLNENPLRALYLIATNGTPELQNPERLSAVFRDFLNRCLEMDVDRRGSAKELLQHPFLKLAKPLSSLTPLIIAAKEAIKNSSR
MAPK1(h) (human), sequence (P28482 whole entry): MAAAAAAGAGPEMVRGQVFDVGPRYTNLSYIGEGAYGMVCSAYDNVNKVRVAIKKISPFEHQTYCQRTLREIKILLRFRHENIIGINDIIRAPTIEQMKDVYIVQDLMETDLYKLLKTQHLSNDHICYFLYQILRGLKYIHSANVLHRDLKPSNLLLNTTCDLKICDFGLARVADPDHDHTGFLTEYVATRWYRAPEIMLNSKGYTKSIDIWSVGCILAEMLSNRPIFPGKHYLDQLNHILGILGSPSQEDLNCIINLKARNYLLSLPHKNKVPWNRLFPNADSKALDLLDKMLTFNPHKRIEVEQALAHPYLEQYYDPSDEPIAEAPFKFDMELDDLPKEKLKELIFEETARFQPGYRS

Question: For MMI-0400 (peptide), which % activity at 100 µM (JAK3(h) (human)) is on record?
Answer: 122%

Question: And the % activity at 100 µM (IGF-1R(h) (human))?
Answer: 90%

Question: What about the % activity at 100 µM (Tie2(R849W)(h) (human)) of the same substance?
Answer: 108%

Question: And the % activity at 100 µM (GRK5(h) (human))?
Answer: 131%

Question: And the % activity at 100 µM (JNK1α1(h) (human))?
Answer: 98%

Question: What about the % activity at 100 µM (EGFR(L858R)(h) (human)) of the same substance?
Answer: 52%

Question: What about the % activity at 100 µM (BTK(h) (human)) of the same substance?
Answer: 94%

Question: What about the % activity at 100 µM (CK2α2(h) (human)) of the same substance?
Answer: 96%

Question: What about the % activity at 100 µM (MAPK1(h) (human)) of the same substance?
Answer: 100%

Question: And the % activity at 100 µM (EphA2(h) (human))?
Answer: 17%

Question: And the % activity at 100 µM (PAK6(h) (human))?
Answer: 100%

Question: And the % activity at 100 µM (SRPK2(h) (human))?
Answer: 97%

Question: And the % activity at 100 µM (Bmx(h) (human))?
Answer: 26%

Question: And the % activity at 100 µM (FGFR1(V561M)(h) (human))?
Answer: 74%

Question: And the % activity at 100 µM (MRCKα(h) (human))?
Answer: 97%

Question: With MMI-0300 (peptide) as the substance, how does the % activity at 100 µM (PAK3(h) (human)) read?
Answer: 140%

Question: What about the % activity at 100 µM (PAK5(h) (human)) of the same substance?
Answer: 110%

Question: What about the % activity at 100 µM (JNK1α1(h) (human)) of the same substance?
Answer: 97%

Question: And the % activity at 100 µM (CK1γ3(h) (human))?
Answer: 125%

Question: What about the % activity at 100 µM (EphA2(h) (human)) of the same substance?
Answer: 31%

Question: What about the % activity at 100 µM (CK1γ2(h) (human)) of the same substance?
Answer: 123%

Question: What about the % activity at 100 µM (FGFR1(V561M)(h) (human)) of the same substance?
Answer: 74%

Question: How did the % activity at 100 µM (JAK3(h) (human)) turn out when MMI-0500 (peptide) was run?
Answer: 95%

Question: And the % activity at 100 µM (PAK5(h) (human))?
Answer: 125%

Question: What about the % activity at 100 µM (c-RAF(h) (human)) of the same substance?
Answer: 19%

Question: What about the % activity at 100 µM (EGFR(L858R)(h) (human)) of the same substance?
Answer: 26%

Question: And the % activity at 100 µM (BTK(h) (human))?
Answer: 18%

Question: What about the % activity at 100 µM (PAR-1Bα(h) (human)) of the same substance?
Answer: 97%

Question: And the % activity at 100 µM (SRPK2(h) (human))?
Answer: 80%

Question: And the % activity at 100 µM (Bmx(h) (human))?
Answer: 45%

Question: What about the % activity at 100 µM (MRCKα(h) (human)) of the same substance?
Answer: 5%
